Earlier results, collected in US6440936B2, “Anti-protozoan methods and materials” (Xoma Corporation, priority 1994, dated 2002).

Tests used:
[1] = system: T. gondii; conditions: 0.25 μg/ml in cyst medium
[2] = system: Candida albicans and Candida parapsilosis; conditions: 10^−6 M; Ph 7.0 or 5.5
[3] = system: Staphylococcus aureus (four strains), Staphylococcus epidermidis, Streptococcus faecalis, Bacillus subtilis, Micrococcus lysodeikticus, Listeria monocylogenes; conditions: 10^−6 M or 160 μg/ml; pH 7.0 or 5.5
[4] = system: human, rabbit and sheep red blood cells and several human tumor cell lines

| Molecule | anti-T. gondii effect [1] | toxic effect on fungi [2] | toxic effect on gram-positive organisms [3] | toxicity to higher eukaryotic cells [4] |
| --- | --- | --- | --- | --- |
| C[C@@H]1[C@H](O)[C@@H](C)/C=C/C=C/C=C/C=C/C=C/C=C/C=C/[C@H](O[C@@H]2O[C@H](C)[C@@H](O)[C@H](N)[C@@H]2O)C[C@@H]2O[C@](O)(C[C@@H](O)C[C@@H](O)[C@H](O)CC[C@@H](O)C[C@@H](O)CC(=O)O[C@H]1C)C[C@H](O)[C@H]2C(=O)O [Amphotericin B] | does not have a significant anti-T. gondii effect | – | – | – |
| BPI: protein isolated from the granules of mammalian polymorphonuclear neutrophils; human BPI approximately 55 kD (protein, UniProt P17213 32-487, looked up) Bactericidal …: VNPGVVVRISQKGLDYASQQGTAALQKELKRIKIPDYSDSFKIKHLGKGHYSFYSMDIREFQLPSSQISMVPNVGLKFSISNANIKISGKWKAQKRFLKMSGNFDLSIEGMSISADLKLGSNPTSGKPTITCSSCSSHINSVHVHISKSKVGWLIQLFHKKIESALRNKMNSQVCEKVTNSVSSELQPYFQTLPVMTKIDSVAGINYGLVAPPATTAETLDVQMKGEFYSENHHNPPPFAPPVMEFPAAHDRMVYLGLSDYFFNTAGLVYQEAGVLKMTLRDDMIPKESKFRLTTKFFGTFLPEVAKKFPNMKIQIHVSASTPPHLSVQPTGLTFYPAVDVQAFAVLPNSSLASLFLIGMHTTGSMEVSAESNRLVGELKLDRLLLELKHSNIGPFPVELLQDIMNYIVPILVLPRVNEKLQKGFPLPTPARVQLYNVVLQPHQNFLLFGADVVYK | – | no toxic effect | no toxic effect | non-toxic |
